B1: A2 (ssDNA)
DNA: TGGTGGTAACAGACCCTTCCACGGC
B2: A1 (structured_DNA)
DNA: CCGCGTACAATCGAGCTCGGGTGTC

Columns and labels:
[1] = target: rPrP90-231 (globular domain of recombinant prion protein) (murine, UniProt P04925 90-231); test: ITC
[2] = target: rPrP23-231 (full-length recombinant prion protein) (murine, UniProt P04925 23-231); test: ITC

Binder | Kd [1] [nM] | Kd [2] [nM]
B1 | 1930 | 1470
B2 | 232 | 838

Source: article doi:10.1101/659037
